Laboratory results: patent US20120301476A1 (TORAY INDUSTRIES, published 2012)

How the values were obtained:
[1] = molecular target: T1, recombinant human CAPRIN-1 protein having the amino acid sequence represented by SEQ ID NO: 2 (prepared in … (human, UniProt Q14444 1-709, limits assumed)); assay: SPR (BIACORE2000), CAPRIN-1 recombinant protein amine-coupled to CM5 chip, antibody as analyte
T1 construct: Expressed in E. coli from pET30a; the His-tag was cleaved off with enterokinase; also called CAPRIN-1 recombinant protein; CAPRIN-1 molecule
T1 sequence: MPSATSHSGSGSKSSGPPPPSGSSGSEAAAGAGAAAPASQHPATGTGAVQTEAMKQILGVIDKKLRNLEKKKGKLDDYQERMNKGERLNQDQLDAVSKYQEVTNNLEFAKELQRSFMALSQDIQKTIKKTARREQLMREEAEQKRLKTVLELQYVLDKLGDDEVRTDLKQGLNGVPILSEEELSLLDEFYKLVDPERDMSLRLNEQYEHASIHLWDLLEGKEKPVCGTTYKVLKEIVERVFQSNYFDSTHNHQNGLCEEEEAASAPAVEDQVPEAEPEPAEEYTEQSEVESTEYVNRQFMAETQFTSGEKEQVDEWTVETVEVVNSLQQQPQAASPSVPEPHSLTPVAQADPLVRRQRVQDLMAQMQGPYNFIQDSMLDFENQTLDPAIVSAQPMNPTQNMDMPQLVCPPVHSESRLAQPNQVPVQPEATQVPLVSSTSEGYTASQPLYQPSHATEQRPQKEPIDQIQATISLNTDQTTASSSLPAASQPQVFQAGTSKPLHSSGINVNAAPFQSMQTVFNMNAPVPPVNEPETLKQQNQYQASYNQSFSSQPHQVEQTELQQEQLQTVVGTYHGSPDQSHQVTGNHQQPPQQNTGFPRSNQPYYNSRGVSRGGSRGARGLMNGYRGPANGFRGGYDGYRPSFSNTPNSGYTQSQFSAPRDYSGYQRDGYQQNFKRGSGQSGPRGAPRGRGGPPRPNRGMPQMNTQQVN
Method: As a reference control (reference cell), a sensor chip with 20 μg/ml bovine serum-derived albumin immobilized thereto by the same method was used. A sensor chip to which the CAPRIN-1 molecule had been immobilized was set in BIACORE2000, 40 μL, each of the antibody solution (analyte) prepared to have a concentration (100, 80, 40, 20, 10, 5, or 2.5 μg/mL) was applied at a flow rate of 20 μL/minute, the surface plasmon resonance angle at the time of binding of an antibody to the CAPRIN-1 molecule immobilized on the sensor chip was measured, so that each RU value (Resonance Unit) was obtained. Next, a running buffer HBS-EP solution (GE) was applied and then the resonance angle upon dissociation of the antibody from the CAPRIN-1 molecule was measured, and then the RU value at this time was obtained. An antibody solution was similarly applied to a reference control (reference cell) sensor chip, the resonance angle at the time of immobilization reaction and the resonance angle at the time of dissociation reaction were measured, and thus the background RU values were obtained. […] Association rate constant (kₒₙ) and dissociation rate constant (koff) were found from the thus obtained RU value at each antibody concentration using affinity analysis software BIA evaluation, so that affinity constant Ka(=kₒₙ/koff) was calculated.

[2] = molecular target: T2, human CAPRIN-1 protein on the cell surfaces of human cancer cell lines and in human cancer tissues (human, UniProt Q14444 2-709); assay: flow cytometry on the listed human cancer cell lines, culture supernatant, against negative control
T2 construct: whole, on cells; Endogenous protein of human cancer cell lines (flow cytometry, ADCC, CDC) and of human cancer tissue sections (immunohistochemistry); also called CAPRIN-1 protein expressed on the cell membrane surfaces
T2 sequence (looked up): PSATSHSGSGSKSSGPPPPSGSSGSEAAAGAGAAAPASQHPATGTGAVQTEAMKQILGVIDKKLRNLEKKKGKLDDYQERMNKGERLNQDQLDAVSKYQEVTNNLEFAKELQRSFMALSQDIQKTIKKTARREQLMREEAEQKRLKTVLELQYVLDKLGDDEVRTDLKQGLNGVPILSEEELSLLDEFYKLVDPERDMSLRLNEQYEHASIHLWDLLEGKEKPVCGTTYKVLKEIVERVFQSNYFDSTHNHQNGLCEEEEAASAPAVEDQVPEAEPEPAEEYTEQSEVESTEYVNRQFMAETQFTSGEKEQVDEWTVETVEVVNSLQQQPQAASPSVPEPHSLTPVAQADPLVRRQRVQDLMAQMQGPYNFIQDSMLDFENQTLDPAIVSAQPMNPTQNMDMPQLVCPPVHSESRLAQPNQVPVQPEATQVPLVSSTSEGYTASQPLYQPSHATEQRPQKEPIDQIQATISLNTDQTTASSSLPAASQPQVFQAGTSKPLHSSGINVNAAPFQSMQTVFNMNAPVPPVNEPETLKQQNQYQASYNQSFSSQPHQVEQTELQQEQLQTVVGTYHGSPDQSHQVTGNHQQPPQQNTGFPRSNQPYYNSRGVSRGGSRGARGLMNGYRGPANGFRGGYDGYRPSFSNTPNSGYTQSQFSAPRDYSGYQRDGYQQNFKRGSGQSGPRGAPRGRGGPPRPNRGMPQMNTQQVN
Method: 10⁶ cells of each cell line were centrifuged in a 1.5 ml microcentrifuge tube. Each cell culture supernatant (100 μl) of CHO-K1 cells containing #1 obtained in (2) above and hybridomas producing #2, #3, #4, #5, and #6 obtained in Example 3 was added and then left to stand on ice for 1 hour. After washing with PBS, a FITC-labeled goat anti-human IgG (H+L) antibody (SouthernBiotech) and a FITC-labeled anti-mouse IgG (H+L) antibody (Invitrogen) diluted 500-fold with PBS containing 0.1% FBS were added and then left to stand on ice for 1 hour. After washing with PBS, fluorescence intensity was measured using a FACS Calibur (Becton, Dickinson). Meanwhile, procedures similar to the above were performed using a culture supernatant of CHO-K1 cells into which no antibody gene had been introduced and medium for culturing hybridomas, so that a negative control sample was prepared. […] Specifically, when the antibody #1 was used, fluorescence intensity was enhanced to 4700% in the case of SK-BR-3 and 5500% in the case of MDA-MB-231V. Also, when the antibodies #2, #3, #4, #5, and #6 were used, fluorescence intensity was enhanced. […] The percentage of enhancement in the above fluorescence intensity was expressed as percentage of increase in mean fluorescence intensity (MFI level) in each type of cell and calculated by the following formula.

B1: human-chicken chimeric antibody #1 having the chicken monoclonal antibody #1 variable region (antibody, V domains shown)
VH: AVTLDESGGGLQMSRGGLSLVCKASGFDFSSYQMNWIRQAPGKGLEFVAAINKFGNSTGHGAAVKGRVTISRDNGQSTVRLQLNNLRAEDTAIYFCTKHAYGYCGSGTWCAAGEIDAWGHGTEVIVSS
VL: QAASTQPSSVSANPGETVEITCSGGGSYSYGWFQQKSPGSAPVTVIYYNNKRPSDIPSRFSGSKSGSTGTLTITGVQADDEAVYYCGSGDSTDTAVFGAGTTLTVLG
notes: also called anti-CAPRIN-1 antibody #1; human-chicken chimeric monoclonal antibody (#1); not shown: human IgG1 H-chain constant region; human IgG1 L-chain constant region
Ka [1]: 4.6e+07 M⁻¹
percentage of increase in mean fluorescence intensity [2]: ≥ 20%
